Legend:
Format in all cases: biochemical
[1] = Carboxylate reductase activity assay, pimelate to pimelate semialdehyde (NADPH consumption); conditions: 2 mM pimelate, enhanced by gene product of sfp, room temperature, 20 min, against empty vector control, FIG. 10
Protocol: A sequence encoding a HIS-tag was added to the genes from Segniliparus rugosus and Segniliparus rotundus that encode the carboxylate reductases of SEQ ID NOs: 4 and 7, respectively (see FIG. 7), such that N-terminal HIS tagged carboxylate reductases could be produced. Each of the modified genes was cloned into a pET Duet expression vector along with a sfp gene encoding a HIS-tagged phosphopantetheine transferase from Bacillus subtilis, both under the T7 promoter. Each expression vector was transformed into a BL21[DE3] E. coli host and the resulting recombinant E. coli strains were cultivated at 37° C. in a 250 mL shake flask culture containing 50 mL LB media and antibiotic selection pressure, with shaking at 230 rpm. Each culture was induced overnight at 37° C. using an auto-induction media.
The pellet from each induced shake flask culture was harvested via centrifugation. Each pellet was resuspended and lysed via sonication, and the cell debris was separated from the supernatant via centrifugation. […]
Enzyme activity assays (i.e., from pimelate to pimelate semialdehyde) were performed in triplicate in a buffer composed of a final concentration of 50 mM HEPES buffer (pH=7.5), 2 mM pimelate, 10 mM MgCl2, 1 mM ATP and 1 mM NADPH. […] The consumption of NADPH was monitored by absorbance at 340 nm.

[2] = Carboxylate reductase activity assay, N7-acetyl-7-aminoheptanoate to N7-acetyl-7-aminoheptanal (NADPH consumption); conditions: 2 mM N7-acetyl-7-aminoheptanoate, enhanced by gene product of sfp, room temperature, 20 min, against empty vector control, FIG. 12
Protocol: The activity of each of the N-terminal His-tagged carboxylate reductases of SEQ ID NOs: 3, 6, and 7 (see Examples 4, and FIG. 7) for converting N7-acetyl-7-aminoheptanoate to N7-acetyl-7-aminoheptanal was assayed in triplicate in a buffer composed of a final concentration of 50 mM HEPES buffer (pH=7.5), 2 mM N7-acetyl-7-aminoheptanoate, 10 mM MgCl2, 1 mM ATP, and 1 mM NADPH. The assays were initiated by adding purified carboxylate reductase and phosphopantetheine transferase or the empty vector control to the assay buffer containing the N7-acetyl-7-aminoheptanoate then incubated at room temperature for 20 min. The consumption of NADPH was monitored by absorbance at 340 nm.

[3] = Carboxylate reductase activity assay, pimelate semialdehyde to heptanedial (NADPH consumption); conditions: 2 mM pimelate semialdehyde, enhanced by gene product of sfp, room temperature, 20 min, against empty vector control, FIG. 13
Protocol: The N-terminal His-tagged carboxylate reductase of SEQ ID NO 7 (see Example 4 and FIG. 7) was assayed using pimelate semialdehyde as substrate. The enzyme activity assay was performed in triplicate in a buffer composed of a final concentration of 50 mM HEPES buffer (pH=7.5), 2 mM pimelate semialdehyde, 10 mM MgCl2, 1 mM ATP and 1 mM NADPH. The enzyme activity assay reaction was initiated by adding purified carboxylate reductase and phosphopantetheine transferase or the empty vector control to the assay buffer containing the pimelate semialdehyde and then incubated at room temperature for 20 min. The consumption of NADPH was monitored by absorbance at 340 nm.

B1: SEQ ID NO 7: Segniliparus rotundus carboxylate reductase, Genbank Accession No. ADG98140.1 (protein, listed as Segniliparus rotundus)
chain: MTQSHTQGPQASAAHSRLARRAAELLATDPQAAATLPDPEVVRQATRPGLRLAERVDAILSGYADRPALGQRSFQTVKDPITGRSSVELLPTFDTITYRELRERATAIASDLAHHPQAPAKPGDFLASIGFISVDYVAIDIAGVFAGLTAVPLQTGATLATLTAITAETAPTLFAASIEHLPTAVDAVLATPSVRRLLVFDYRAGSDEDREAVEAAKRKIADAGSSVLVDVLDEVIARGKSAPKAPLPPATDAGDDSLSLLIYTSGSTGTPKGAMYPERNVAHFWGGVWAAAFDEDAAPPVPAINITFLPLSHVASRLSLMPTLARGGLMHFVAKSDLSTLFEDLKLARPTNLFLVPRVVEMLYQHYQSELDRRGVQDGTREAEAVKDDLRTGLLGGRILTAGFGSAPLSAELAGFIESLLQIHLVDGYGSTEAGPVWRDGYLVKPPVTDYKLIDVPELGYFSTDSPHPRGELAIKTQTILPGYYKRPETTAEVFDEDGFYLTGDVVAQIGPEQFAYVDRRKNVLKLSQGEFVTLAKLEAAYSSSPLVRQLFVYGSSERSYLLAVIVPTPDALKKFGVGEAAKAALGESLQKIARDEGLQSYEVPRDFIIETDPFTVENGLLSDARKSLRPKLKEHYGERLEAMYKELADGQANELRDIRRGVQQRPTLETVRRAAAAMLGASAAEIKPDAHFTDLGGDSLSALTFSNFLHDLFEVDVPVGVIVSAANTLGSVAEHIDAQLAGGRARPTFATVHGKGSTTIKASDLTLDKFIDEQTLEAAKHLPKPADPPRTVLLTGANGWLGRFLALEWLERLAPAGGKLITIVRGKDAAQAKARLDAAYESGDPKLAGHYQDLAATTLEVLAGDFSEPRLGLDEATWNRLADEVDFISHPGALVNHVLPYNQLFGPNVAGVAEIIKLAITTRIKPVTYLSTVAVAAGVEPSALDEDGDIRTVSAERSVDEGYANGYGNSKWGGEVLLREAHDRTGLPVRVFRSDMILAHQKYTGQVNATDQFTRLVQSLLATGLAPKSFYELDAQGNRQRAHYDGIPVDFTAESITTLGGDGLEGYRSYNVFNPHRDGVGLDEFVDWLIEAGHPITRIDDYDQWLSRFETSLRGLPESKRQASVLPLLHAFARPGPAVDGSPFRNTVFRTDVQKAKIGAEHDIPHLGKALVLKYADDIKQLGLL
carboxylate reductase activity for converting pimelate to pimelate semialdehyde (NADPH consumption, absorbance at 340 nm) [1]: accepted pimelate as substrate
carboxylate reductase activity for converting N7-acetyl-7-aminoheptanoate to N7-acetyl-7-aminoheptanal (NADPH consumption, absorbance at 340 nm) [2]: accepted N7-acetyl-7-aminoheptanoate as substrate
carboxylate reductase activity for converting pimelate semialdehyde to heptanedial (NADPH consumption, absorbance at 340 nm) [3]: accepted pimelate semialdehyde as substrate

Source: patent US9580731B2, “Methods of producing 7-carbon chemicals via c1 carbon chain elongation associated with coenzyme B synthesis” (INVISTA North America S.á r.l., priority 2012, dated 2017)
